{
  "source": "patent US20150011421",
  "molecules": {"B1": {"name": "PTP1B (residues 1-322, molecular weight 37.4 kDa) (protein)", "chain": "MEMEKEFEQIDKSGSWAAIYQDIRHEASDFPCRVAKLPKNKNRNRYRDVSPFDHSRIKLHQEDNDYINASLIKMEEAQRSYILTQGPLPNTCGHFWEMVWEQKSRGVVMLNRVMEKGSLKCAQYWPQKEEKEMIFEDTNLKLTLISEDIKSYYTVRQLELENLTTQETREILHFHYTTWPDFGVPESPASFLNFLFKVRESGSLSPEHGPVVVHCSAGIGRSGTFCLADTCLLLMDKRKDPSSVDIKKVLLEMRKFRMGLIQTADQLRFSYLAVIEGAKFIMGDSSVQDQWKELSHEDLEPPPEHIPPPPRPPKRILEPHNG"}, "B2": {"name": "Recombinant human legumain/asparaginyl endopeptidase (R&D Systems), activated in 50 mM CH3COONa (pH 4.0) and 100 mM NaCl (protein)", "chain": "VPIDDPEDGGKHWVVIVAGSNGWYNYRHQADACHAYQIIHRNGIPDEQIVVMMYDDIAYSEDNPTPGIVINRPNGTDVYQGVPKDYTGEDVTPQNFLAVLRGDAEAVKGIGSGKVLKSGPQDHVFIYFTDHGSTGILVFPNEDLHVKDLNETIHYMYKHKMYRKMVFYIEACESGSMMNHLPDNINVYATTAANPRESSYACYYDEKRSTYLGDWYSVNWMEDSDVEDLTKETLHKQYHLVKSHTNTSHVMQYGNKTISTMKVMQFQGMKRKASSPVPLPPVTHLDLTPSPDVPLTIMKRKLMNTN"}},
  "key": {"[1]": {"system": "H2N-(CH2)4-CO-(SEQ ID NO:1)-NH-CH2-Fc"}, "[2]": {"system": "H2N-(CH2)4-CO-(SEQ ID NO:2)-NH-CH2-Fc"}, "[3]": {"system": "H2N-(CH2)4-CO-(SEQ ID NO:5)-NH-CH2-Fc"}, "[4]": {"system": "T1, Biotin-AEEEIYGEFEAKKKKC (SEQ ID NO:4)", "T1 sequence": "AEEEIYGEFEAKKKKC"}, "[5]": {"biological_target": "T2, Biotin-AEEEIYGEFEAKKKKC (SEQ ID NO:4), fully phosphorylated by c-Src kinase", "T2 chain": "AEEEIYGEFEAKKKKC"}, "[6]": {"biological_target": "T3, H2N-(CH2)4-CO-(SEQ ID NO:1)-NH-CH2-Fc", "T3 chain": "AANL"}, "Z-Ala-Ala-Asn-AMC": {"biological_target": "T4, Z-Ala-Ala-Asn-AMC", "T4 chain": "AAN"}},
  "data": [
    {"molecule": "Purified recombinant human cathepsin B (R&D Systems), activated in 5 mM DTT and 25 mM MES buffer (pH 5.0)", "values": [
      {"measurement": "ACV peak current after adding activated cathepsin B (negative control)", "setting": "[1]", "value": "The peak current ip,acv of these two tetrapeptides did not show the characteristic exponential decay while the activated cathepsin B was added"},
      {"measurement": "cleavage product by HPLC/MS after 2 h incubation in solution", "setting": "[2]", "value": "The cleavage product, Phe-Gly-NH-CH2-Fc appeared at 37 min, was found confirming that the proteolysis took place at the arginine site"},
      {"measurement": "ACV peak current after adding activated cathepsin B (negative control, P1 Arg replaced by Asn)", "setting": "[3]", "value": "The peak current ip,acv of these two tetrapeptides did not show the characteristic exponential decay while the activated cathepsin B was added"}
    ]},
    {"molecule": "Active c-Src kinase protein (N-terminal 6His-tagged recombinant human c-Src, molecular weight 61.7 kDa)", "values": [
      {"measurement": "phosphorylation of the immobilized peptide", "setting": "[4]", "value": "The peptide at the VACNF NEA was fully phosphorylated with 1-hour further incubation in c-Src kinase solution"}
    ]},
    {"molecule": "B1", "values": [
      {"measurement": "(kcat/Km)[E0], slope of -d(|Z|/|Z0|)/dt vs. |Z|/|Z0|, [E0]=2.4 nM", "setting": "[5]", "value": "a slope of 0.0522 s^-1"},
      {"measurement": "decrease in |Z| (REIS) over ~100 s after adding 2.4 nM PTP1B", "setting": "[5]", "value": "A sharp decrease in |Z| by ~1,150Ω (~6.3%)"},
      {"measurement": "decrease in |Z| (REIS) over ~100 s after adding 2.4 nM PTP1B, percent", "setting": "[5]", "value": "A sharp decrease in |Z| by ~1,150Ω (~6.3%)"},
      {"measurement": "specificity constant kcat/Km (REIS, 2.4 nM PTP1B)", "setting": "[5]", "value": "2.2e+07", "unit": "M⁻¹ s⁻¹"},
      {"measurement": "specificity constant kcat/Km (REIS, average of 7 data sets at three PTP1B concentrations)", "setting": "[5]", "value": "an average value of 2.1×10^7 M^-1 s^-1 and a standard deviation of 1.0×10^6 M^-1 s^-1"}
    ]},
    {"molecule": "B2", "values": [
      {"measurement": "(kcat/Km)[E0], slope of reaction rate vs. surface adsorbed Fc, [E0]=773 nM", "setting": "[6]", "value": "a slope of 6.32×10^-4 s^-1"},
      {"measurement": "(kcat/Km)[E0], slope of vi vs. Γsurf, [E0]=80.1 nM", "setting": "[6]", "value": "the slope of 6.30×10^-4 s^-1 at [E0]=80.1 nM"},
      {"measurement": "specificity constant kcat/KM (electrochemistry, EC, VACNF NEAs)", "setting": "[6]", "value": 11300, "unit": "M⁻¹ s⁻¹"},
      {"measurement": "specificity constant kcat/Km (ACV on VACNF NEA), as given in the summary of Example 1", "setting": "[6]", "value": 8200, "unit": "M⁻¹ s⁻¹"},
      {"measurement": "specificity constant kcat/Km (ACV, single experiment at 80.1 nM)", "setting": "[6]", "value": 7900, "unit": "M⁻¹ s⁻¹"},
      {"measurement": "time constant in the fit of surface adsorbed Fc vs. time", "setting": "[6]", "value": "the time constant is 1101 s (~48 min)"},
      {"measurement": "time constant of the exponential decay of the ACV peak current after adding legumain", "setting": "[6]", "value": "The time constant is 1076 s (~18 min.)"},
      {"measurement": "specificity constant kcat/KM (fluorescence assay, FL)", "setting": "Z-Ala-Ala-Asn-AMC", "value": 4300, "unit": "M⁻¹ s⁻¹"}
    ]}
  ]
}
